Assay results reported in PMC7689938, “Abscisic acid promotes jasmonic acid biosynthesis via a ‘SAPK10‐bZIP72‐AOC’ pathway to synergistically inhibit seed germination in rice (Oryza sativa)” (The New Phytologist, 2020).

T1: GST-SAPK10 (rice (Oryza sativa L. ssp. japonica cv …, UniProt Q75H77 1-362))
T1 construct: SAPK10 (SnRK2 type kinase), rice; full-length CDS in pGEX-4T-1; Purified GST-SAPK10 gave a phosphorylation band with Phos-tag (autophosphorylation, not detected in S177A); source: Transetta (DE3) cells, purified (GST-Sefinose Kit)
T1 sequence (looked up): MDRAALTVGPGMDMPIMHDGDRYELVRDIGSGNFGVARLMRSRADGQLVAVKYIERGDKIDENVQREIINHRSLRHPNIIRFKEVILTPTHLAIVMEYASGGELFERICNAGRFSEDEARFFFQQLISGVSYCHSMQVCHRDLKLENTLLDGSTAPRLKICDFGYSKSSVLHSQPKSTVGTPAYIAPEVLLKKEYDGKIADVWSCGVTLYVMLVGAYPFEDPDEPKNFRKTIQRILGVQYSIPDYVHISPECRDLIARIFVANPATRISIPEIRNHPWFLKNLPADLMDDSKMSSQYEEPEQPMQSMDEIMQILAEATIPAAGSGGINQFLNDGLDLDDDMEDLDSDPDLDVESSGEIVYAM


Molecular target: T1, GST-SAPK10
Assay: pull-down; GST fusion on glutathione high-capacity magnetic agarose beads; 50 mM Tris-HCl pH 7.5, 5% glycerol, 1 mM EDTA, 1 mM DTT, 1 mM PMSF, 0.01% Nonidet P-40, 150 mM KCl; 4°C, 2 h; blots with anti-His and anti-GST
Settings: both partners purified

binding result | Binder
binds | His-SAPK10 (enzyme, UniProt Q75H77 1-362, looked up, SAPK10 (SnRK2 type kinase), rice; full-length CDS in pET28a; source: Transetta (DE3) cells, purified (6 x His-Tagged Protein Purification Kit)) MDRAALTVGPGMDMPIMHDGDRYELVRDIGSGNFGVARLMRSRADGQLVAVKYIERGDKIDENVQREIINHRSLRHPNIIRFKEVILTPTHLAIVMEYASGGELFERICNAGRFSEDEARFFFQQLISGVSYCHSMQVCHRDLKLENTLLDGSTAPRLKICDFGYSKSSVLHSQPKSTVGTPAYIAPEVLLKKEYDGKIADVWSCGVTLYVMLVGAYPFEDPDEPKNFRKTIQRILGVQYSIPDYVHISPECRDLIARIFVANPATRISIPEIRNHPWFLKNLPADLMDDSKMSSQYEEPEQPMQSMDEIMQILAEATIPAAGSGGINQFLNDGLDLDDDMEDLDSDPDLDVESSGEIVYAM
binds | His-SAPK10^S177A (enzyme, UniProt Q75H77 1-362, looked up, SAPK10, rice, Ser177 replaced by alanine; full-length CDS in pET28a; source: Transetta (DE3) cells, purified (6 x His-Tagged Protein Purification Kit)) MDRAALTVGPGMDMPIMHDGDRYELVRDIGSGNFGVARLMRSRADGQLVAVKYIERGDKIDENVQREIINHRSLRHPNIIRFKEVILTPTHLAIVMEYASGGELFERICNAGRFSEDEARFFFQQLISGVSYCHSMQVCHRDLKLENTLLDGSTAPRLKICDFGYSKSSVLHSQPKATVGTPAYIAPEVLLKKEYDGKIADVWSCGVTLYVMLVGAYPFEDPDEPKNFRKTIQRILGVQYSIPDYVHISPECRDLIARIFVANPATRISIPEIRNHPWFLKNLPADLMDDSKMSSQYEEPEQPMQSMDEIMQILAEATIPAAGSGGINQFLNDGLDLDDDMEDLDSDPDLDVESSGEIVYAM
